Assay results reported in PMC11313866 (Science Advances, 2024).

Biological target: recombinant S. cerevisiae histone H3-H4 (S. cerevisiae, UniProt P61830 1-136; P02309 1-103)
Assay: pull-down

binding result: binds
B1: GST-Pol32^244-350 (domain or fragment)
chain: DKNNDDLEDLLETTAEDSLMDVPKIQQTKPSETEHSKEPKSEEEPSSFIDEDGYIVTKRPATSTPPRKPSPVVKRALSSSKKQETPSSNKRLKKQGTLESFFKRKAK
